The values below come from patent publication US20120121559A1 (VALTED, published 2012).

Series [1] addresses PARsylated PARP1 (recombinant PARP1 automodified in vitro), P09874.
For series [2], the target named is recombinant PARP1, non-PARsylated, P09874.
Series [3] addresses PARsylated PARP1, endogenous protein of MCF7 cells, P09874.
The target in series [4] is T1, PARIS (parkin interacting substrate) (human, UniProt Q6NUN9 1-644, limits assumed).
T1 construct: Negative control of the co-immunoprecipitation
T1 sequence (Q6NUN9 whole entry): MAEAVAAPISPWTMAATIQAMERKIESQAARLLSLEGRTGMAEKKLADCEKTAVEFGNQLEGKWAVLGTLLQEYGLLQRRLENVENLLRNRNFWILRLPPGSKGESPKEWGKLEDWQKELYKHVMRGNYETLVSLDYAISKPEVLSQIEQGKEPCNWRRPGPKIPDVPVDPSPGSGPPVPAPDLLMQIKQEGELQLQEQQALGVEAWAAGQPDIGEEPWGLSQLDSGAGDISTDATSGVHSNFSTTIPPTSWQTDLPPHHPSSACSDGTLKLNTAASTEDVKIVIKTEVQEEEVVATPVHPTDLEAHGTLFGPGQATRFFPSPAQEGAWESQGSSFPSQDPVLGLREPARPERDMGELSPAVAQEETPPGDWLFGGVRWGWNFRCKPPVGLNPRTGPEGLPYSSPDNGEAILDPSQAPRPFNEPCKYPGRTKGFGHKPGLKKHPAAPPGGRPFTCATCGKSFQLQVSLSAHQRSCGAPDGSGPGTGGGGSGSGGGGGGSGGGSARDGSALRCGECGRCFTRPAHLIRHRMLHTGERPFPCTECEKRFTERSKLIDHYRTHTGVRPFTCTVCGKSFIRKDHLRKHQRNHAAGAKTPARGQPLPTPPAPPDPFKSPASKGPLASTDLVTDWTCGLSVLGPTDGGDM
Put plainly: immunoprecipitation of endogenous Iduna from MCF7 lysate, immunoblot. (In western blotting, separated proteins are transferred to a membrane and probed.)

PARsylated PARP1 (recombinant PARP1 automodified in vitro), P09874, sequence (P09874 whole entry, looked up): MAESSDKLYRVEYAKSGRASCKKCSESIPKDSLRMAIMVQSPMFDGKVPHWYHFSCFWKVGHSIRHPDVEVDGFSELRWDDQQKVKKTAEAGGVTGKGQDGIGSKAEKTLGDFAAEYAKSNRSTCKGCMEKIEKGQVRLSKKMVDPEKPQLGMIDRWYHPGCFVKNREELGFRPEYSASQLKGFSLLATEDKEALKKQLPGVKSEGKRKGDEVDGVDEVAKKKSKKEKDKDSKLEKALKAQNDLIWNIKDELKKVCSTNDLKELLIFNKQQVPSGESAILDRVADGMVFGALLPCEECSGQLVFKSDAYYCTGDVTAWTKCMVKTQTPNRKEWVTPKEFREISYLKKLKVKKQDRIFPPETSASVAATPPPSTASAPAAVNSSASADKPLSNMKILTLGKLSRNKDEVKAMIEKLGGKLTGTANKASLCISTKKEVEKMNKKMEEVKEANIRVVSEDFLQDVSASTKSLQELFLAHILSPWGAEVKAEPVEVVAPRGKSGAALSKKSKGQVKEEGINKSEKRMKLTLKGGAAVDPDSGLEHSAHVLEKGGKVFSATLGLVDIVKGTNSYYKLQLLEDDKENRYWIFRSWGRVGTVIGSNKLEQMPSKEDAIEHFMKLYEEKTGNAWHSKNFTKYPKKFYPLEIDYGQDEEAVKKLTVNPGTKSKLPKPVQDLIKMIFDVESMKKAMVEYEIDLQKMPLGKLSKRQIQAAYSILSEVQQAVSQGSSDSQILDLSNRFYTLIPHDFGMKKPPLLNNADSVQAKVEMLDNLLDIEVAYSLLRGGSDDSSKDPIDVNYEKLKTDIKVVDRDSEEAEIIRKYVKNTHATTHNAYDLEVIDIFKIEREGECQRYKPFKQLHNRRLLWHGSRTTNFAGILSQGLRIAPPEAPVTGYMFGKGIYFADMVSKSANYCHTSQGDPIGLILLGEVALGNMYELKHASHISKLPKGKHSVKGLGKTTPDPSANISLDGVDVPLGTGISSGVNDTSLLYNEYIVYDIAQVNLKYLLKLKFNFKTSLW
PARsylated PARP1, endogenous protein of MCF7 cells, P09874, sequence (P09874 whole entry, looked up): as above
recombinant PARP1, non-PARsylated, P09874, sequence (P09874 whole entry, looked up): as above

B1: GST-Iduna (protein)
chain: MEMAGCGEIDHSINMLPTNKKANESCSNTAPSLTVPECAICLQTCVHPVSLPCKHVFCYLCVKGASWLGKRCALCRQEIPEDFLDKPTLLSPEELKAASRGNGEYAWYYEGRNGWWQYDERTSRELEDAFSKGKKNTEMLIAGFLYVADLENMVQYRRNEHGRRRKIKRDIIDIPKKGVAGLRLDCDTNTVNLARESSADGADSGSAQTGASVQLAVPSSTRPLTSVDGQLTSPVTPSPDAGISLEDSFAHLQLSGDSIAERSHRGEGEEDHESPSSGRVPDTSVEETESDASSDSEDAPVVVAQHSLTQQRPLVPNGNQTVADQSDRSGTDRSVAGGGTMSVNVRSRRPDGQCTVIEV
With B1, the “in vitro ubiquitination assay (E1, UBCH 5c, ubiquitin), immunoblot with antibodies to ubiquitin” value is “Only PARsylated PARP1 is ubiquitinated by GST-Iduna” in series [1] and “Only PARsylated PARP1 is ubiquitinated by GST-Iduna (non-PARsylated PARP1 is not ubiquitinated)” in series [2].

B2: GFP-Iduna (EGFP-tagged Iduna) (protein)
chain: MEMAGCGEIDHSINMLPTNKKANESCSNTAPSLTVPECAICLQTCVHPVSLPCKHVFCYLCVKGASWLGKRCALCRQEIPEDFLDKPTLLSPEELKAASRGNGEYAWYYEGRNGWWQYDERTSRELEDAFSKGKKNTEMLIAGFLYVADLENMVQYRRNEHGRRRKIKRDIIDIPKKGVAGLRLDCDTNTVNLARESSADGADSGSAQTGASVQLAVPSSTRPLTSVDGQLTSPVTPSPDAGISLEDSFAHLQLSGDSIAERSHRGEGEEDHESPSSGRVPDTSVEETESDASSDSEDAPVVVAQHSLTQQRPLVPNGNQTVADQSDRSGTDRSVAGGGTMSVNVRSRRPDGQCTVIEV
On to B2, for which the “in vitro ubiquitination assay on anti-GFP immunoprecipitates, immunoblot with antibodies to PAR and ubiquitin” value in series [3] is reported as “only GFP-Iduna is capable of polyubiquitination of PARsylated PARP1”.

B3: human Iduna (RNF146) (enzyme)
chain: MAGCGEIDHSINMLPTNKKANESCSNTAPSLTVPECAICLQTCVHPVSLPCKHVFCYLCVKGASWLGKRCALCRQEIPEDFLDKPTLLSPEELKAASRENGEYAWYYEGRNGWWQYDERTSRELEDAFSKGKKNTEMLIAGFLYVADLENMVQYRRNEHGRRRKVKRDIIDIPKKGVAGLRLDCDANTVNLARESSADGADSVSAQSGASVQPLVSSVRPLTSVDGQLTSPATPSPDASTSLEDSFAHLQLSGDNTAERSHRGEGEEDHESPSSGRVPAPDTSIEETESDASSDSEDVSAVVAQHSLTQQRLLVSNANQTVPDRSDRSGTDRSVAGGGTVSVSVRSRRPDGQCTVIEV
notes: also called hIduna; endogenous Iduna (MCF7 cells)
With B3, the binding result in series [4] is given as “no binding”.
